For one molecule, EC50 results are on record in patent US20090142806A1 (Pfizer, published 2009).

The EC50 is the concentration at which the effect is half-maximal. Lower therefore signals higher potency in that assay.

The target in one experiment is T1, human IL-17RC-Ig (human).
T1 construct: also called IL-17RC-IgG; IL-17RC-Ig fusion protein
Briefly: ELISA, IL-17RC-Ig coated at 1.5 µg/ml, serial dilutions of biotin-conjugated IL-17F. (ELISA stands for enzyme-linked immunosorbent assay.)

The target in the next experiment is T2, human IL-17R-Ig (human).
T2 construct: also called IL-17R-IgG; IL-17R-Ig fusion protein
Briefly: ELISA, IL-17R-Ig coated at 1.5 µg/ml, serial dilutions of biotin-conjugated IL-17F.

T1 sequence (chain, as listed by the source limits assumed): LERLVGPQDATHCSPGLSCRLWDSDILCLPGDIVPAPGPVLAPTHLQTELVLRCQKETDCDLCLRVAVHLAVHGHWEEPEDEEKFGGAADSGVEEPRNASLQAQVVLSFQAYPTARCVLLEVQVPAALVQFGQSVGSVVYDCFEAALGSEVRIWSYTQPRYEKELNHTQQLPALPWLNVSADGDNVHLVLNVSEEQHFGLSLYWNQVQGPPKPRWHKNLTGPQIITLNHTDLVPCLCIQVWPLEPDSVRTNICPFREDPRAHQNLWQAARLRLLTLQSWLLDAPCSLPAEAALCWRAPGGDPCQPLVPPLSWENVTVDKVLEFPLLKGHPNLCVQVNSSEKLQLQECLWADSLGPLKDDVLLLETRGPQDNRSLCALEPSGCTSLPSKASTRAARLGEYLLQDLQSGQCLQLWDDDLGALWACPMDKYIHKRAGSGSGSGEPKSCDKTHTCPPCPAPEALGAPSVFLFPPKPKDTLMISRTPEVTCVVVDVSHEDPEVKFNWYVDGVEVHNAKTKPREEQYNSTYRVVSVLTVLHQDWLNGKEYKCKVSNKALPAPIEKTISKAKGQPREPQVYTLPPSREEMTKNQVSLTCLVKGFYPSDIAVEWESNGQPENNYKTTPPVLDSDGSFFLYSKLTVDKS
T2 sequence (chain, as listed by the source limits assumed): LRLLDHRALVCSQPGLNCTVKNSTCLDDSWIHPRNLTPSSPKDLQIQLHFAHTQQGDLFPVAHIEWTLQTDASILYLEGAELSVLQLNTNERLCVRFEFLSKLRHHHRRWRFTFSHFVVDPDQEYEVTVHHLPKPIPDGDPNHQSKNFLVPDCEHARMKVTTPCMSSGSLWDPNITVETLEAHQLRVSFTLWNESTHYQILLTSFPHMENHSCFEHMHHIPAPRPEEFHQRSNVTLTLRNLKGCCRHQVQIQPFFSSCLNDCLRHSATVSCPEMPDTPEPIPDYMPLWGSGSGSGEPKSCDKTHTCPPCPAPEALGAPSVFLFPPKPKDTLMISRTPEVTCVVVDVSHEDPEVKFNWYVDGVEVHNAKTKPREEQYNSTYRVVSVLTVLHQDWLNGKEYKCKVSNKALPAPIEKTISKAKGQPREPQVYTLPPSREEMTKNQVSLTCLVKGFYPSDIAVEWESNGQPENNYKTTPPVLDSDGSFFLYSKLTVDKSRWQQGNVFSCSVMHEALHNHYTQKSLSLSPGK
Procedure for human IL-17R-Ig: (§1) After washing, saturating concentrations of avidin-horseradish peroxidase (HRP) were added, and plates were incubated for an additional 1 h at RT. Unbound avidin-HRP was washed using PBS/1% BSA, and the ELISA was developed using TBM.
Procedure for human IL-17RC-Ig: as §1

B1: human IL-17F (IL-17F homodimer) (ligand)
chain: RKIPKVGHTFFQKPESCPPVPGGSMKLDIGIINENQRVSMSRNIESRSTSPWNYTVTWDPNRYPSEVVQAQCRNLGCINAQGKEDISMNSVPIQQETLVVRRKHQGCSVSFQLEKVLVTVGCTCVTPVIHHVQ
modifications: biotin-conjugated in the receptor-binding and inhibition ELISAs (sites not given)
notes: Used as purified protein, as recombinant conditioned media (293, COS) and as natural protein from T cell conditioned media; also called IL-17F/F; interleukin-17F
As for B1, the EC50 came out at 15 µg/mL with human IL-17RC-Ig and 1.23 µg/mL with human IL-17R-Ig.
